Test results taken from US20260258115A1 (MAPP BIOPHARMACEUTICAL, published 2026).
Residue numbers refer to the chain shown, from its start.

B1: ADI-24823 (antibody, V domains shown)
VH: EVQLLESGGGLVKPGGSLRLSCAASGFTFSSYSMNWVRQAPGKGLEWVSSISSSSSYIYYADSVKGRFTISRDNAKNSLYLQMNSLRAEDTAVYYCAREGDYYGSGRPFDYWGQGTLVTVSS
VL: QSVVTQPPSVSGAPGQRVTISCTGSSSNIGAGYDVHWYQQLPGTAPKLLIYGNSNRPSGVPDRFSGSKSGTSASLAITGLQAEDEADYYCQSYDSSLSVVFGGGTKLTVL
notes: full-length IgG
B2: ADI-24833 (antibody, V domains shown)
VH: QVQLVESGGGLVKPGGSLRLSCAASGFTFSSYSMNWVRQAPGKGLEWVSSISSSSSYIYYADSVKGRFTISRDNAKNSLYLQMNSLRAEDTAVYYCARALTYYYDSSGHGADYWGQGTLVTVSS
VL: B1 VL
notes: full-length IgG
B3: ADI-25557 (antibody, V domains shown)
VH: B1 VH with E99G, G100Y, D101G, Y102S, Y103G, G104S, S105Y, G106L, R107D, P108Y
VL: QPGLTQPPSVSGAPGQRVTISCTGSSSNIGAGYDVHWYQQLPGTAPKLLIYGNSNRPSGVPDRFSGSKSGTSASLAITGLQAEDEADYYCQSYDSSLSGFYVFGTGTKLTVL
notes: full-length IgG
B4: ADI-24847 (antibody, V domains shown)
VH: EVQLVESGGGLVKPGGSLRLSCAASGFTFSSYSMNWVRQAPGKGLEWVSSISSSSNYIYYADSVKGRFTISRDNAKNSLYLQMNSLRAEDTAVYYCARDRIAAYTFDYWGQGTLVTVSS
VL: B1 VL with S98P, V99Y, G103T, L107V
notes: full-length IgG
B5: ADI-25556 (antibody, V domains shown)
VH: QVQLVQSGGGLVKPGGSLRLSCAASGFTFSSYSMNWVRQAPGKGLEWVSSISSSSSYIYYADSVKGRFTISRDNAKNSLYLQMNSLRAEDTAVYYCARQRGGIAVAGTYFDLWGRGTLVTVSS
VL: QSVLTQPPSVSGAPGQRVTISCTGSSSNIGAGYDVHWYQQLPGTAPKLLIYGNSNRPSGVPDRFSGSKSGTSASLAITGLQAEDEADYYCQSYDSTVVFGGGTKVTVL
notes: full-length IgG; also called Ab 450
B6: ADI-19465 (antibody, V domains shown)
VH: EVQLVESGGGLVKPGGSLRLSCAASGFTFSSYSMNWVRQAPGKGLEWVSSISSSSSYIYYADSVKGRFTISRDNAKNSLYLQMNSLRAEDTAVYYCAREGSSSWYYFDYWGQGTLVTVSS
VL: B3 VL with P2S, G3V, L4V, F100P, Y101W, T105G
notes: full-length IgG; also called Ab 170
B7: ADI-24840 (antibody, V domains shown)
VH: EVQLLESGGGLVKPGGSLRLSCAASGFTFSSYSMNWVRQAPGKGLEWVSSISSSSSYIYYADSVKGRFTISRDNAKNSLYLQMNSLRAEDTAVYYCARDQVYSYGYYFDYWGQGTLVTVSS
VL: QSVLAQPPSVSGAPGQRVTISCTGSSSNIGAGYDVHWYQQLPGTAPKLLIYGNSNRPSGVPDRFSGSKSGTSASLAITGLQAEDEADYYCQSYDSSLSGSHVVFGGGTKLTVL
notes: full-length IgG
B8: ADI-24820 (antibody, V domains shown)
VH: QVQLVQSGAEVKKPGSSVKVSCKASGGTFSSYTISWVRQAPGQGLEWMGRIIPILGIANYAQKFQGRVTITADKSTSTAYMELSSLRSEDTAVYYCARDPPYLRAFDIWGQGTTVTVSS
VL: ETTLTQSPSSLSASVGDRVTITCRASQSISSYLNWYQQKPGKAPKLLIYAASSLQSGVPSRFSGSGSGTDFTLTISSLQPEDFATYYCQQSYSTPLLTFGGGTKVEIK
notes: full-length IgG
B9: ADI-24811 (antibody, V domains shown)
VH: QVQLVQSGAEVKKPGASVKVSCKASGYTFTSYDINWVRQATGQGLEWMGWMNPNSGNTGYAQKFQGRVTMTRNTSISTAYMELSSLRSEDTAVYYCARGLPGQWLEYYFDYWGQGTLVTVSS
VL: SYVLTQPPSVSVAPGKTARITCGGNNIGSKSVHWYQQKPGQAPVLVIYYDSDRPSGIPERFSGSNSGNTATLTISRVEAGDEADYYCQVWDSSSDHPVFGGGTKVTVL
notes: full-length IgG
B10: ADI-19507 (antibody, V domains shown)
VH: EVQLVESGGGLVKPGGSLRLSCAASGFTFSSYSMNWVRQAPGKGLEWVSSISSSSSYIYYADSVKGRFTISRDNAKNSLYLQMNSLRAEDTAVYYCAREVLTGDYLGWFDPWGQGTLVTVSS
VL: QSVVTQPPSVSGAPGQRVTISCTGSSSNIGAGYDVHWYQQLPGTAPKLLIYGNSNRPSGVPDRFSGSKSGTSASLAITGLQAEDEADYYCQSYDSSHWVFGGGTKLTVL
notes: full-length IgG
B11: ADI-24836 (antibody, V domains shown)
VH: EVQLLESGGGLVQPGRSLRLSCAASGFTFDDYAMHWVRQAPGKGLEWVSGISWNSGSIGYADSVKGRFTISRDNAKNSLYLQMNSLRAEDTALYYCAKDLRGGTYYYYGMDVWGQGTTVTVSS
VL: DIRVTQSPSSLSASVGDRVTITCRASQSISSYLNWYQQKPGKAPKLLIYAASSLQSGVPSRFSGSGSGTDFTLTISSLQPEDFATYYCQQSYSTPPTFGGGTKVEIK
notes: full-length IgG
B12: ADI-19430 (antibody, V domains shown)
VH: QVQLVQSGAEVKKPGSSVKVSCKASGGTFSSYTISWVRQAPGQGLEWMGRIIPILGIANYAQKFQGRVTITADKSTSTAYMELSSLRSEDTAVYYCARDGGPYYYDSSGYYRLDYWGQGTLVTVSS
VL: DIRMTQSPLSLPVTLGQPASISCRSSQSLVYSDGNTYLNWFQQRPGQSPRRLIYKVSNRDSGVPDRFSGSGSGTDFTLKISRVEAEDVGVYYCMQGTHWTYTFGQGTKLEIK
notes: full-length IgG
B13: ADI-19460 (antibody, V domains shown)
VH: QVQLQQWGAGLLKPSETLSLTCAVYGGSFSGYYWSWIRQPPGKGLEWIGEINHSGSTNYNPSLKSRVTISVDTSKNQFSLKLSSVTAADTAVYYCARGGITAYYYYYGMDVWGQGTTVTVSS
VL: not shown
notes: full-length IgG
B14: ADI-19454 (antibody, V domains shown)
VH: EVQLLESGGGLVKPGGSLRLSCAASGFTFSSYSMNWVRQAPGKGLEWVSSISSSSSYIYYADSVKGRFTISRDNAKNSLYLQMNSLRAEDTAVYYCARGYCSGGSCYSHYFQHWGQGTLVTVSS
VL: QSVLTQPASVSGSPGQSITISCTGTSSDVGGYNYVSWYQQHPGKAPKLMIYDVSNRPSGVSNRFSGSKSGNTASLTISGLQAEDEADYYCSSYTSSSTVVFGGGTKVTVL
notes: full-length IgG
B15: ADI-24826 (antibody, V domains shown)
VH: B6 VH with E99D, G100R, S101G, S102Y, S103G, W104S, Y105G, Y106A, F107L
VL: B14 VL with S2P, V107L
notes: full-length IgG; also called Ab 388
B16: ADI-19440 (antibody, V domains shown)
VH: EVQLVESGGGLVQPGGSLRLSCAASGFTFSSYSMNWVRQAPGKGLEWVSYISSSSSTIYYADSVKGRFTISRDNAKNSLYLQMNSLRAEDTAVYYCAREGYSGSYGYYFDYWGQGTLVTVSS
VL: QSVLTQPPSVSGAPGQRVTISCTGSSSNIGAGYDVHWYQQLPGTAPKLLIYGNSNRPSGVPDRFSGSKSGTSASLAITGLQAEDEADYYCQSYDSSLSGSVFGTGTKLTVL
notes: full-length IgG
B17: ADI-19457 (antibody, V domains shown)
VH: EVQLLESGGGLVKPGGSLRLSCAASGFTFSSYSMNWVRQAPGKGLEWVSSISSSSSYIYYADSVKGRFTISRDNAKNSLYLQMNSLRAEDTAVYYCARQGYCSGGSCYHIDYWGQGTLVTVSS
VL: B16 VL with L4V, S100W, T104G
notes: full-length IgG
B18: ADI-25472 (antibody, V domains shown)
VH: B6 VH with E99D, G100D
VL: B16 VL with S100Y, L108V
notes: full-length IgG
B19: ADI-19449 (antibody, V domains shown)
VH: B7 VH with L5V, Q100S, V101G, Y102S, S103Y, Y104L, G105S, Y107A, Y110I, L116M
VL: B16 VL with Q1S, S2Y, V3E, S100Y, L108V
notes: full-length IgG
B20: ADI-24815 (antibody, V domains shown)
VH: EVQLVESGGGLVKPGGSLRLSCAASGFTFSSYSMNWVRQAPGKGLEWVSSISSSSSYIYYADSVKGRFTISRDNAKNSLYLQMNSLRAEDTAVYYCAREGYSSSSGYYYMDVWGKGTTVTVSS
VL: B16 VL with L108V
notes: full-length IgG
B21: ADI-24800 (antibody, V domains shown)
VH: EVQLLESGGGLVKPGGSLRLSCAASGFTFSSYSMNWVRQAPGKGLEWVSSISSSSSYIYYADSVKGRFTISRDNAKNSLYLQMNSLRAEDTAVYYCARVRGGYSYGYGMDVWGQGTTVTVSS
VL: B16 VL with L4V, Y33F, R63Q, S100V, T104G
notes: full-length IgG
B22: ADI-19450 (antibody, V domains shown)
VH: EVQLLESGGGLVQPGGSLRLSCAASGFTFSSYWMHWVRQAPGKGLVWVSRINSDGSSTSYADSVKGRFTISRDNAKNTLYLQMNSLRAEDTAVYYCARAPISILRFLGGYFDYWGQGTLVTVSS
VL: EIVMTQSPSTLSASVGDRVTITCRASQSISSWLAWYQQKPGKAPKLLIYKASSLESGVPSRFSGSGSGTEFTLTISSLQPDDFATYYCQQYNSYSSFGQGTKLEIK
notes: full-length IgG; also called Ab 160

Biological target: T1, RSV postfusion F (postF), subtype A (respiratory syncytial virus subtype A, UniProt P03420 26-513)
T1 construct: also called Postfusion subtype A; F deltaFP
Assay: BLI

Binder	binding result
B1	no binding
B2	no binding
B3	no binding
B4	no binding
B5	no binding
B6	no binding
B7	no binding
B8	no binding
B9	no binding
B10	no binding
B11	no binding
B12	no binding
B13	no binding
B14	no binding
B15	no binding
B16	no binding
B17	no binding
B18	no binding
B19	no binding
B20	no binding
B21	no binding
B22	no binding

Biological target: T2, RSV prefusion F (preF), subtype B (respiratory syncytial virus subtype B)
T2 construct: also called Prefusion subtype B
Assay: BLI, IgG

Binder	Kd [nM]
B1	6.03
B2	11.4
B3	33.3
B4	40
B5	42
B6	19.4
B7	7.8
B8	38.5
B9	4.29
B10	10.1
B11	3.44
B12	16.8
B13	6.01
B14	15.7
B15	9.03
B16	14.3
B17	16.7
B18	37.7
B19	26
B20	29.1
B21	51.4
B22	38.6
